The source of these data is US5783681, “Androgen regulation with DNA sequences of rat probasin gene” (University of Manitoba).

Holding throughout (assay): cell_activity
Data set [1] has as its target T1, glucocorticoid receptor (GR) (Rattus norvegicus) (UniProt P06536).
T1 sequence: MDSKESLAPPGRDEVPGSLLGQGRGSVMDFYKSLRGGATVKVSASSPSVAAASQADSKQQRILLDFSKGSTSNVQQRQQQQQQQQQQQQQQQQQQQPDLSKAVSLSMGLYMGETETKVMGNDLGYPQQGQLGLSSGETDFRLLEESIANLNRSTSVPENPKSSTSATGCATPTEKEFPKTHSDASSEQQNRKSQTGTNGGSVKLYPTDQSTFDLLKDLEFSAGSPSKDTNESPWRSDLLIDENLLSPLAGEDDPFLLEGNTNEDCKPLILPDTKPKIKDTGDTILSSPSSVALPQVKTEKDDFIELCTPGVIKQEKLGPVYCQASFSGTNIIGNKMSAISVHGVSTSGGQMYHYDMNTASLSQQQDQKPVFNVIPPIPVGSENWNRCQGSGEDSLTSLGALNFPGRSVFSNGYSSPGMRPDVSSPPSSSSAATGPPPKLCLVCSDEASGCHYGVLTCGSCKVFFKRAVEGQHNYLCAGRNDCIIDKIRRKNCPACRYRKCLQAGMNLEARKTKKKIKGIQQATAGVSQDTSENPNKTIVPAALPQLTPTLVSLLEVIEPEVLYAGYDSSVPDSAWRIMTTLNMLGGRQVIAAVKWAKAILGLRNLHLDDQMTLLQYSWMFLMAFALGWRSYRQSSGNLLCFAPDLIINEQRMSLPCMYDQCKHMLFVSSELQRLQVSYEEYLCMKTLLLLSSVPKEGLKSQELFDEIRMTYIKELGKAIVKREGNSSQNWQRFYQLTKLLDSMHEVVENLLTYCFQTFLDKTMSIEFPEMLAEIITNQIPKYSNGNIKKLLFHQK
The conditions noted are these: DEX, CAT reporter.

The target in data set [2] is T2, androgen receptor (AR) (Rattus norvegicus) (UniProt P15207).
T2 sequence: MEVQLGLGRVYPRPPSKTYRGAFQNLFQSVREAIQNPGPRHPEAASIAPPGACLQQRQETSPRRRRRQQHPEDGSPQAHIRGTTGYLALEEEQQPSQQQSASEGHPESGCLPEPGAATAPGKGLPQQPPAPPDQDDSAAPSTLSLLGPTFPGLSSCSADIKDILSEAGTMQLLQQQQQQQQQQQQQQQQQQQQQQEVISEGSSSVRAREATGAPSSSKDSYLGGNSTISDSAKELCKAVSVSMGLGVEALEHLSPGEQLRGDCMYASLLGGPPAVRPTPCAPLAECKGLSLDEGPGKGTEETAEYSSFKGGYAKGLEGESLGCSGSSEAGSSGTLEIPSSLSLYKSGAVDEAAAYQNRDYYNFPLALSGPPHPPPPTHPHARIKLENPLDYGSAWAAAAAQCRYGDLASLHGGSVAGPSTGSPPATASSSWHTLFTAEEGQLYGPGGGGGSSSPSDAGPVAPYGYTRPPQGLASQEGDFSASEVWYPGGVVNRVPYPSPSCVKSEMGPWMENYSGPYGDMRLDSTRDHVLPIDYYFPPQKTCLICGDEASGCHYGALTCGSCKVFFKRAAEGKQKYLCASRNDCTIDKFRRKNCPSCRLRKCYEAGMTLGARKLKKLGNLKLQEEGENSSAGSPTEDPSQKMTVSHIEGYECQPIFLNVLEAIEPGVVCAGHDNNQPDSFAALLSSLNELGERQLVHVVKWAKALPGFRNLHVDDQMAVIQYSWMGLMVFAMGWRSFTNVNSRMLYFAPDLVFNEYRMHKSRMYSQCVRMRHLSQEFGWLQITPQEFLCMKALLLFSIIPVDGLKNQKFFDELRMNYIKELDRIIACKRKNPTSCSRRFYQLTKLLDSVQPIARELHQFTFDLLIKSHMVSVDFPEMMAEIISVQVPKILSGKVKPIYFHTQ
The conditions noted are these: DHT, CAT reporter.

For data set [3], the target named is androgen receptor V865M V865M (Homo sapiens) (UniProt P10275). The conditions noted are these: 10 nM DHT; background 4.2.
The target in data set [4] is T3, androgen receptor (hAR) wild type (Homo sapiens) (UniProt P10275).
T3 sequence: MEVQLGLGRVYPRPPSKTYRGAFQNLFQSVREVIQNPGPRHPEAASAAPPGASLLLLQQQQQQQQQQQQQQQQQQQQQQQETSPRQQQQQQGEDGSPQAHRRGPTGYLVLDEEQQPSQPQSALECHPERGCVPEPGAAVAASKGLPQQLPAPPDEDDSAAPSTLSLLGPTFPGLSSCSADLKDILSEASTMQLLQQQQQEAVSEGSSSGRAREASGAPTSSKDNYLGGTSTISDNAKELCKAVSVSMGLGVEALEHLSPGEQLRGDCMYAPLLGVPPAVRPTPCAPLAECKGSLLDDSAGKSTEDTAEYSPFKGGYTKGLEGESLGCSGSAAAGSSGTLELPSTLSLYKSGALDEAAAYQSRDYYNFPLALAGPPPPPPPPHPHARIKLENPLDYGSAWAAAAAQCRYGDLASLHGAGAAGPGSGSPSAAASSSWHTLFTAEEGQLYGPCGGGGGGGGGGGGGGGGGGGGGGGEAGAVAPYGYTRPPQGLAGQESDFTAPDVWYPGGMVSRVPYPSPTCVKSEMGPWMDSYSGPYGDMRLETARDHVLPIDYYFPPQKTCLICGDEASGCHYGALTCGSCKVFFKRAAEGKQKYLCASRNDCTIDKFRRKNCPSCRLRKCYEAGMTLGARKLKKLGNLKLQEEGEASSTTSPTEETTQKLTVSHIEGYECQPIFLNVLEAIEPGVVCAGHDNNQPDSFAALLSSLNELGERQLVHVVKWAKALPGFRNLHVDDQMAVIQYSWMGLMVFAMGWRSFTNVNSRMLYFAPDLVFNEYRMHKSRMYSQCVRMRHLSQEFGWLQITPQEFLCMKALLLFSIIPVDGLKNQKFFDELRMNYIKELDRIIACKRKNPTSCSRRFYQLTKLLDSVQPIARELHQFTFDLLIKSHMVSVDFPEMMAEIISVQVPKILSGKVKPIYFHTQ
The conditions noted are these: 10 nM DHT; background 4.2.

Data set [5] addresses T4, androgen receptor V865L V865L (Homo sapiens) (UniProt P10275).
T4 sequence: T3 sequence
The conditions noted are these: 10 nM DHT; background 4.2.

“ATAGCATCTTGTTCTTAGTGGGCATTGTCCATGCCTAGTAAAGTACTCCAAGAACCTATTTGTATACTAGATGACACAATGTCAATGTCTGTGTACAACTGCCAACTGGGATGCAAGACACTGCCCATGCCAATCATCCTGAAAAGCAGCTATAAAAAGCAGGAAGCTACTCTGCACCTTGTCAGTGAGGTCCAGATACCTACAG (double strand) [ARE-1 adjacent to probasin -158 to +28]” gave an activity (fold induction) in data set [1] of 21.
Regarding “ATGATAGCATCTTGTTCTTAGTCTTTTTCTTAATAGGGACATAAAGCCCACAAATAAAAATATGCCTGAAGAATGGGACAGGCATTGGGCATTGTCCATGCCTAGTAAAGTACTCCAAGAACCTATTTGTATACTAGATGACACAATGTCAATGTCTGTGTACAACTGCCAACTGGGATGCAAGACACTGCCCATGCCAATCATCCTGAAAAGCAGCTATAAAAAGCAGGAAGCTACTCTGCACCTTGTCAGTGAGGTCCAGATACCTACAG (double strand) [probasin -244 to +28]”, the activity (fold induction) in data set [1] was 9; in data set [2] it was 49.
“TAGTCATCATGTTTAAACATCTACCATTCCAGTTAAGAAAATATGATAGCATCTTGTTCTTAGTCTTTTTCTTAATAGGGACATAAAGCCCACAAATAAAAATATGCCTGAAGAATGGGACAGGCATTGGGCATTGTCCATGCCTAGTAAAGTACTCCAAGAACCTATTTGTATACTAGATGACACAATGTCAATGTCTGTGTACAACTGCCAACTGGGATGCAAGACACTGCCCATGCCAATCATCCTGAAAAGCAGCTATAAAAAGCAGGAAGCTACTCTGCACCTTGTCAGTGAGGTCCAGATACCTACAG (double strand) [probasin -286 to +28 ARE2*]”: the activity (dpm/min/mg protein) in data set [3] was determined as 49; in data set [4], 177; in data set [5], 122.
Turning to “TAGTCATCATGTTTAAACATCTACCATTCCAGTTAAGAAAATATGATAGCATCTTGTTCTTAGTCTTTTTCTTAATAGGGACATAAAGCCCACAAATAAAAATATGCCTGAAGAATGGGACAGGCATTGGGCATTGTCCATGCCTAGTAAAGTACTCCAAGAACCTATTTGTATACTAGATGACACAATGTCAATGTCTGTGTACAACTGCCAACTGGGATGCAAGACACTGCCCATGCCAATCATCCTGAAAAGCAGCTATAAAAAGCAGGAAGCTACTCTGCACCTTGTCAGTGAGGTCCAGATACCTACAG (double strand) [probasin -286 to +28]”, in data set [3], the activity (dpm/min/mg protein) turned out to be 42.
